Numbering of substitutions follows the chain as printed.
B1: 16-B2 (Fab, V domains shown)
VH: QVQLVQSGAEVKKPGASVKVSCKASGYTFTNYDIIWVRQAPGQGLEWMGYINPYNDGTKYNEKFKGRVTMTRDTSTSTVYMELSSLRSEDTAVYYCARLLKYRRFRYYAIDYWGQGTTVTVSS
VL: DIQMTQSPSSLSASVGDRVTITCRASENVYSNLAWYQQKPGKAPKLLIYAASNLQSGVPSRFSGSGSGTDFTFTISSLQPEDIATYYCQHFWGSPFTFGQGTKLEIK
notes: Fab
B2: 3-F10 (Fab, V domains shown)
VH: B1 VH with D33V, I35L, R106S
VL: B1 VL with G93Y, T97K
notes: Fab
B3: 3-G7 (Fab, V domains shown)
VH: B1 VH with D33V, I35L, R106S, I110E
VL: B1 VL with H90N, G93Y
notes: Fab
B4: 3-H8 (Fab, V domains shown)
VH: B1 VH with D33V, I35L
VL: B1 VL with G93Y, T97V
notes: Fab
B5: 1-E9 (Fab, V domains shown)
VH: B1 VH with D33V, I35L, F105M, R106S
VL: B1 VL with G93Y
notes: Fab
B6: 3-F2 (Fab, V domains shown)
VH: B1 VH with D33V, I35L, R106S
VL: B1 VL with G93Y, T97I
notes: Fab
B7: 1-D3 (Fab, V domains shown)
VH: B1 VH with D33V, I35L, R106S, Y112E
VL: B1 VL with G93Y
notes: Fab
B8: 2-B1 (Fab, V domains shown)
VH: B1 VH with D33V, I35L, R106S
VL: B1 VL with H90N, G93Y
notes: Fab
B9: 4B12-20 (Fab, V domains shown)
VH: B1 VH with D56G, G57R, T58R, K59E, N61A
VL: B1 VL with N28P, L33V, F71Y
notes: Fab
B10: 1-B11 (Fab, V domains shown)
VH: B1 VH with D33V, I35L, R106S
VL: B1 VL with H90N, G93Y
notes: Fab
B11: 3-F11 (Fab, V domains shown)
VH: B1 VH with D33V, I35L
VL: B1 VL with G93Y
notes: Fab
B12: 4-A1 (Fab, V domains shown)
VH: B1 VH with D33V, I35L, R106S
VL: B1 VL with W92Y, G93Y
notes: Fab
B13: 3-B11 (Fab, V domains shown)
VH: B1 VH with D33V, I35L
VL: B1 VL with G93Y, P95G
notes: Fab
B14: 2-A2 (Fab, V domains shown)
VH: B1 VH with D33V, I35L, F105L, R106S
VL: B1 VL with G93Y
notes: Fab
B15: 1-G12 (Fab, V domains shown)
VH: B1 VH with D33V, I35L, R106S
VL: B1 VL with G93Y, T97G
notes: Fab
B16: 4B12-5 (Fab, V domains shown)
VH: B1 VH with G57R, T58R, K59E
VL: B1 VL with N28P, L33V, F71Y
notes: Fab
B17: 4A6-12 (Fab, V domains shown)
VH: B1 VH with D56R, G57R, T58R
VL: B1 VL with R24H, F71Y
notes: Fab
B18: 4B12-15 (Fab, V domains shown)
VH: B1 VH with N52A, D56G, G57R, T58R, K59E
VL: B1 VL with N28P, L33V, F71Y
notes: Fab
B19: 4-C7 (Fab, V domains shown)
VH: B1 VH with D33V, I35L, R106S
VL: B1 VL
notes: Fab
B20: 4B12-6 (Fab, V domains shown)
VH: B1 VH with D56G, T58R, K59E
VL: B1 VL with N28P, L33V, F71Y
notes: Fab
B21: 2-F6 (Fab, V domains shown)
VH: B1 VH with D33V, I35L
VL: B1 VL with G93Y
notes: Fab
B22: 4-E1 (Fab, V domains shown)
VH: B1 VH with D33V, I35L, R104A, R106S
VL: B1 VL
notes: Fab
B23: 4B12-2 (Fab, V domains shown)
VH: B1 VH with N55Q, D56G, G57R, T58R, K59E
VL: B1 VL with N28P, L33V, F71Y
notes: Fab
B24: 1-A11 (Fab, V domains shown)
VH: B1 VH with D33V, I35L, R106S
VL: B1 VL with G93Y
notes: Fab
B25: 2-G12 (Fab, V domains shown)
VH: B1 VH with D33V, I35L
VL: B1 VL with G93Y, S94R
notes: Fab
B26: 4B12-3 (Fab, V domains shown)
VH: B1 VH with N55V, D56G, G57R, T58R, K59E
VL: B1 VL with N28P, L33V, F71Y
notes: Fab
B27: 1-A6 (Fab, V domains shown)
VH: B1 VH with D33V, I35L, F105H, R106S
VL: B1 VL with G93K
notes: Fab
B28: 4B12-16 (Fab, V domains shown)
VH: B1 VH with P53A, D56G, G57R, T58R, K59E
VL: B1 VL with N28P, L33V, F71Y
notes: Fab
B29: 4B12-13 (Fab, V domains shown)
VH: B1 VH with D56G, G57R, T58R, K59E, E62A
VL: B1 VL with N28P, L33V, F71Y
notes: Fab
B30: 4B12-7 (Fab, V domains shown)
VH: B1 VH with D56G, G57R, K59E
VL: B1 VL with N28P, L33V, F71Y
notes: Fab
B31: 4B12-17 (Fab, V domains shown)
VH: B1 VH with Y54A, D56G, G57R, T58R, K59E
VL: B1 VL with N28P, L33V, F71Y
notes: Fab
B32: 1-H6 (Fab, V domains shown)
VH: B1 VH with D33V, I35L, R106S
VL: B1 VL with G93W
notes: Fab
B33: 2-F10 (Fab, V domains shown)
VH: B1 VH with D33V, I35L, R106S
VL: B1 VL with H90V, G93Y
notes: Fab
B34: 3-G5 (Fab, V domains shown)
VH: B1 VH with D33V, I35L, R106S
VL: B1 VL with H90N, G93Y
notes: Fab
B35: 4B12-18 (Fab, V domains shown)
VH: B1 VH with N55A, D56G, G57R, T58R, K59E
VL: B1 VL with N28P, L33V, F71Y
notes: Fab
B36: 3-C12 (Fab, V domains shown)
VH: B1 VH with D33V, I35L, R106S
VL: B1 VL
notes: Fab
B37: 4-F10 (Fab, V domains shown)
VH: B1 VH with D33V, I35L, R106S
VL: B1 VL with H90Q, G93Y
notes: Fab
B38: 3-F7 (Fab, V domains shown)
VH: B1 VH with D33V, I35L
VL: B1 VL with G93K
notes: Fab
B39: 4-B2 (Fab, V domains shown)
VH: B1 VH with D33V, I35L
VL: B1 VL
notes: Fab
B40: 4B12-22 (Fab, V domains shown)
VH: B1 VH with D56G, G57R, T58R, K59E, R103A
VL: B1 VL with N28P, L33V, F71Y
notes: Fab
B41: 4B12-21 (Fab, V domains shown)
VH: B1 VH with D56G, G57R, T58R, K59E, K101A
VL: B1 VL with N28P, L33V, F71Y
notes: Fab
B42: 4B12-4 (Fab, V domains shown)
VH: B1 VH with D56A, G57R, T58R, K59E
VL: B1 VL with N28P, L33V, F71Y
notes: Fab
B43: 4B12-14 (Fab, V domains shown)
VH: B1 VH with N52S, D56G, G57R, T58R, K59E
VL: B1 VL with N28P, L33V, F71Y
notes: Fab
B44: 4-D4 (Fab, V domains shown)
VH: B1 VH with D33V, I35L
VL: B1 VL with G93Y
notes: Fab
B45: 4B12-19 (Fab, V domains shown)
VH: B1 VH with D56G, G57R, T58R, K59E, Y60A
VL: B1 VL with N28P, L33V, F71Y
notes: Fab
B46: 4B12-8 (Fab, V domains shown)
VH: B1 VH with D56G, G57R, T58R
VL: B1 VL with N28P, L33V, F71Y
notes: Fab
B47: 1-B10 (Fab, V domains shown)
VH: B1 VH with D33V, I35L, R106S, Y107F
VL: B1 VL with H90G, G93Y
notes: Fab

target: TrkB (Homo sapiens (Human), UniProt Q16620 32-430); test: koff of Fab at 25 C; T1/2=Log2/koff
Sequence (Q16620 32-430 limits assumed): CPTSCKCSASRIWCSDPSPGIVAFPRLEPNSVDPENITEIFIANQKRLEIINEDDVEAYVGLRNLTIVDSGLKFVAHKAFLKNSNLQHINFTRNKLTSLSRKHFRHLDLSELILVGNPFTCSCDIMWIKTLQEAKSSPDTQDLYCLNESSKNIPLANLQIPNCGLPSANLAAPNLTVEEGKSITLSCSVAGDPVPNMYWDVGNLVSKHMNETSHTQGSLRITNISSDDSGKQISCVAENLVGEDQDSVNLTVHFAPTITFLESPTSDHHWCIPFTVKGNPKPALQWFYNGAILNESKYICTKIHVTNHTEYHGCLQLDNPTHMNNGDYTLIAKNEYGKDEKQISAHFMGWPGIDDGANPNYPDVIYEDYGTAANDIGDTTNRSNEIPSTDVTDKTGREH
Procedure, shortened: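 Monovalent Fab fragments were tested at 25° C by surface plasmon resonance on a Biacore instrument, against TrkB extracellular-domain monomer amine-coupled to the chip at low capacity. Fabs were injected low to high as a 3-fold serial dilution from 100 nM for 84 sec, with a 10 minute dissociation after the top sample. The dissociation half-life was calculated from koff, which was fitted to a Langmuir binding model in BIAevaluation. The formula used was T1/2 = Log 2/koff.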

Row | T1/2 | Binder
1 | 5 min | B1
2 | 0.79 min | B2
3 | 0.92 min | B3
4 | 0.81 min | B4
5 | 1.04 min | B5
6 | 1.38 min | B6
7 | 0.92 min | B7
8 | 0.32 min | B8
9 | 12.2 min | B9
10 | 0.72 min | B10
11 | 1.16 min | B11
12 | 0.93 min | B12
13 | 0.87 min | B13
14 | 0.57 min | B14
15 | 0.4 min | B15
16 | 16.1 min | B16
17 | 74.2 min | B17
18 | 2.7 min | B18
19 | 1.4 min | B19
20 | 3.7 min | B20
21 | 0.23 min | B21
22 | 0.71 min | B22
23 | 5.8 min | B23
24 | 1.08 min | B24

Row | T1/2 | Binder
25 | 0.3 min | B25
26 | 6.6 min | B26
27 | 0.42 min | B27
28 | 5.6 min | B28
29 | 13.7 min | B29
30 | 7.6 min | B30
31 | 1 min | B31
32 | 0.62 min | B32
33 | 0.48 min | B33
34 | 1.21 min | B34
35 | 3.8 min | B35
36 | 0.84 min | B36
37 | 1.03 min | B37
38 | 1.01 min | B38
39 | 1.33 min | B39
40 | 3.5 min | B40
41 | 0.3 min | B41
42 | 11.4 min | B42
43 | 3.2 min | B43
44 | 1.24 min | B44
45 | 13.1 min | B45
46 | 13.8 min | B46
47 | 0.55 min | B47
